We go through one protein from article doi:10.1101/298208 (bioRxiv, 2018).

The data set concerns the molecule itself. In words: native gel or EMSA. A general note: A gel shift assay detects complexes by their altered migration in electrophoresis.

B1: scavenger receptor class BI (SR-BI) (receptor)
chain: MGGSSRARWVALGLGALGLLFAALGVVMILMVPSLIKQQVLKNVRIDPSSLSFGMWKEIPVPFYLSVYFFEVVNPNEVLNGQKPVVRERGPYVYREFRQKVNITFNDNDTVSFVENRSLHFQPDKSHGSESDYIVLPNILVLGGSILMESKPVSLKLMMTLALVTMGQRAFMNRTVGEILWGYDDPFVHFLNTYLPDMLPIKGKFGLFVGMNNSNSGVFTVFTGVQNFSRIHLVDKWNGLSKIDYWHSEQCNMINGTSGQMWAPFMTPESSLEFFSPEACRSMKLTYNESRVFEGIPTYRFTAPDTLFANGSVYPPNEGFCPCRESGIQNVSTCRFGAPLFLSHPHFYNADPVLSEAVLGLNPNPKEHSLFLDIHPVTGIPMNCSVKMQLSLYIKSVKGIGQTGKIEPVVLPLLWFEQSGAMGGKPLSTFYTQLVLMPQVLHYAQYVLLGLGGLLLLVPIICQLRSQEKCFLFWSGSKKGSQDKEAIQAYSESLMSPAAKGTVLQEAKL
In general, stoichiometry N refers to the number of molecules, sites or subunits per partner or assembly. Take B1: the “stoichiometry N” value was 2.
